Data taken from US20200223889A1 (Novo Nordisk, published 2020).
Positions of bridges follow the written chain, without caps; N, C: chain ends. Non-standard residues stand in square brackets, D forms with d. Cit = NC(=O)NCCC[C@H](N)C(=O)O; Api = NC1(C(=O)O)CCNCC1

B1: Chem. 5 (peptide)
peptide: cyclo(CH[dF]RWACH[dF]RWA)
modifications: disulfide 1-7
SMILES: C[C@@H]1NC(=O)[C@H](Cc2c[nH]c3ccccc23)NC(=O)[C@H](CCCNC(=N)N)NC(=O)[C@@H](Cc2ccccc2)NC(=O)[C@H](Cc2c[nH]cn2)NC(=O)[C@@H]2CSSC[C@H](NC1=O)C(=O)N[C@@H](Cc1c[nH]cn1)C(=O)N[C@H](Cc1ccccc1)C(=O)N[C@@H](CCCNC(=N)N)C(=O)N[C@@H](Cc1c[nH]c3ccccc13)C(=O)N[C@@H](C)C(=O)N2
notes: also called c[c[Cys-His-D-Phe-Arg-Trp-Ala-Cys]-His-D-Phe-Arg-Trp-Ala]
B2: Chem. 52 (peptide)
peptide: cyclo(CKH[dF]HWCKH[dF]HW)
modifications: disulfide 1-7
SMILES: NCCCC[C@@H]1NC(=O)[C@@H]2CSSC[C@H](NC(=O)[C@H](Cc3c[nH]c4ccccc34)NC(=O)[C@H](Cc3c[nH]cn3)NC(=O)[C@@H](Cc3ccccc3)NC(=O)[C@H](Cc3c[nH]cn3)NC1=O)C(=O)N[C@@H](CCCCN)C(=O)N[C@@H](Cc1c[nH]cn1)C(=O)N[C@H](Cc1ccccc1)C(=O)N[C@@H](Cc1c[nH]cn1)C(=O)N[C@@H](Cc1c[nH]c3ccccc13)C(=O)N2
notes: also called c[c[Cys-Lys-His-D-Phe-His-Trp-Cys]-Lys-His-D-Phe-His-Trp]
B3: Chem. 62 (peptide)
peptide: cyclo(CPH[dF]HWCAKKKW)
modifications: disulfide 1-7
notes: also called c[c[Cys-Pro-His-D-Phe-His-Trp-Cys]-Ala-Lys-Lys-Lys-Trp]
B4: Chem. 60 (peptide)
peptide: cyclo(CAH[dF]HWCAKKKW)
modifications: disulfide 1-7
SMILES: C[C@@H]1NC(=O)[C@@H]2CSSC[C@H](NC(=O)[C@H](Cc3c[nH]c4ccccc34)NC(=O)[C@H](Cc3c[nH]cn3)NC(=O)[C@@H](Cc3ccccc3)NC(=O)[C@H](Cc3c[nH]cn3)NC1=O)C(=O)N[C@@H](C)C(=O)N[C@@H](CCCCN)C(=O)N[C@@H](CCCCN)C(=O)N[C@@H](CCCCN)C(=O)N[C@@H](Cc1c[nH]c3ccccc13)C(=O)N2
notes: also called c[c[Cys-Ala-His-D-Phe-His-Trp-Cys]-Ala-Lys-Lys-Lys-Trp]
B5: Chem. 57 (peptide)
peptide: cyclo(CAH[dF]QWCAK[dK]KW)
modifications: disulfide 1-7
SMILES: C[C@@H]1NC(=O)[C@@H]2CSSC[C@H](NC(=O)[C@H](Cc3c[nH]c4ccccc34)NC(=O)[C@H](CCC(N)=O)NC(=O)[C@@H](Cc3ccccc3)NC(=O)[C@H](Cc3c[nH]cn3)NC1=O)C(=O)N[C@@H](C)C(=O)N[C@@H](CCCCN)C(=O)N[C@H](CCCCN)C(=O)N[C@@H](CCCCN)C(=O)N[C@@H](Cc1c[nH]c3ccccc13)C(=O)N2
notes: also called c[c[Cys-Ala-His-D-Phe-Gln-Trp-Cys]-Ala-Lys-D-Lys-Lys-Trp]
B6: Chem. 75 (peptide)
peptide: cyclo(CPH[dF]HWCKKKKW)
modifications: disulfide 1-7
notes: also called c[c[Cys-Pro-His-D-Phe-His-Trp-Cys]-Lys-Lys-Lys-Lys-Trp]
B7: Chem. 76 (peptide)
peptide: cyclo(CKH[dF]HWCAKKKW)
modifications: disulfide 1-7
SMILES: C[C@@H]1NC(=O)[C@@H]2CSSC[C@H](NC(=O)[C@H](Cc3c[nH]c4ccccc34)NC(=O)[C@H](CCCCN)NC(=O)[C@H](CCCCN)NC(=O)[C@H](CCCCN)NC1=O)C(=O)N[C@@H](CCCCN)C(=O)N[C@@H](Cc1c[nH]cn1)C(=O)N[C@H](Cc1ccccc1)C(=O)N[C@@H](Cc1c[nH]cn1)C(=O)N[C@@H](Cc1c[nH]c3ccccc13)C(=O)N2
notes: also called c[c[Cys-Lys-His-D-Phe-His-Trp-Cys]-Ala-Lys-Lys-Lys-Trp]
B8: Chem. 71 (peptide)
peptide: cyclo(CPH[dF]HWCAKKKR)
modifications: disulfide 1-7
SMILES: C[C@@H]1NC(=O)[C@@H]2CSSC[C@H](NC(=O)[C@H](CCCNC(=N)N)NC(=O)[C@H](CCCCN)NC(=O)[C@H](CCCCN)NC(=O)[C@H](CCCCN)NC1=O)C(=O)N1CCC[C@H]1C(=O)N[C@@H](Cc1c[nH]cn1)C(=O)N[C@H](Cc1ccccc1)C(=O)N[C@@H](Cc1c[nH]cn1)C(=O)N[C@@H](Cc1c[nH]c3ccccc13)C(=O)N2
notes: also called c[c[Cys-Pro-His-D-Phe-His-Trp-Cys]-Ala-Lys-Lys-Lys-Arg]
B9: Chem. 55 (peptide)
peptide: cyclo(CKH[dF][Cit]WCKH[dF][Cit]W)
modifications: disulfide 1-7
SMILES: NCCCC[C@@H]1NC(=O)[C@@H]2CSSC[C@H](NC(=O)[C@H](Cc3c[nH]c4ccccc34)NC(=O)[C@H](CCCNC(N)=O)NC(=O)[C@@H](Cc3ccccc3)NC(=O)[C@H](Cc3c[nH]cn3)NC1=O)C(=O)N[C@@H](CCCCN)C(=O)N[C@@H](Cc1c[nH]cn1)C(=O)N[C@H](Cc1ccccc1)C(=O)N[C@@H](CCCNC(N)=O)C(=O)N[C@@H](Cc1c[nH]c3ccccc13)C(=O)N2
notes: also called c[c[Cys-Lys-His-D-Phe-Cit-Trp-Cys]-Lys-His-D-Phe-Cit-Trp]
B10: Chem. 1 (peptide)
peptide: cyclo(CH[dF]RWECH[dF]RWE)
modifications: disulfide 1-7
SMILES: N=C(N)NCCC[C@@H]1NC(=O)[C@@H](Cc2ccccc2)NC(=O)[C@H](Cc2c[nH]cn2)NC(=O)[C@@H]2CSSC[C@H](NC(=O)[C@H](CCC(=O)O)NC(=O)[C@H](Cc3c[nH]c4ccccc34)NC1=O)C(=O)N[C@@H](Cc1c[nH]cn1)C(=O)N[C@H](Cc1ccccc1)C(=O)N[C@@H](CCCNC(=N)N)C(=O)N[C@@H](Cc1c[nH]c3ccccc13)C(=O)N[C@@H](CCC(=O)O)C(=O)N2
notes: also called c[c[Cys-His-D-Phe-Arg-Trp-Glu-Cys]-His-D-Phe-Arg-Trp-Glu]
B11: Chem. 50 (peptide)
peptide: cyclo(C[Api]H[dF]HWC[Api]H[dF]HW)
modifications: disulfide 1-7
SMILES: O=C1N[C@H]2CSSC[C@H](NC(=O)[C@H](Cc3c[nH]c4ccccc34)NC(=O)[C@H](Cc3c[nH]cn3)NC(=O)[C@@H](Cc3ccccc3)NC(=O)[C@H](Cc3c[nH]cn3)NC(=O)C3(CCNCC3)NC2=O)C(=O)NC2(CCNCC2)C(=O)N[C@@H](Cc2c[nH]cn2)C(=O)N[C@H](Cc2ccccc2)C(=O)N[C@@H](Cc2c[nH]cn2)C(=O)N[C@H]1Cc1c[nH]c2ccccc12
notes: also called c[c[Cys-ACP-His-D-Phe-His-Trp-Cys]-ACP-His-D-Phe-His-Trp]
B12: Chem. 53 (peptide)
peptide: cyclo(CEH[dF]HWCEH[dF]HW)
modifications: disulfide 1-7
SMILES: O=C(O)CC[C@@H]1NC(=O)[C@@H]2CSSC[C@H](NC(=O)[C@H](Cc3c[nH]c4ccccc34)NC(=O)[C@H](Cc3c[nH]cn3)NC(=O)[C@@H](Cc3ccccc3)NC(=O)[C@H](Cc3c[nH]cn3)NC1=O)C(=O)N[C@@H](CCC(=O)O)C(=O)N[C@@H](Cc1c[nH]cn1)C(=O)N[C@H](Cc1ccccc1)C(=O)N[C@@H](Cc1c[nH]cn1)C(=O)N[C@@H](Cc1c[nH]c3ccccc13)C(=O)N2
notes: also called c[c[Cys-Glu-His-D-Phe-His-Trp-Cys]-Glu-His-D-Phe-His-Trp]
B13: Chem. 54 (peptide)
peptide: cyclo(CRH[dF][Cit]WCRH[dF][Cit]W)
modifications: disulfide 1-7
SMILES: N=C(N)NCCC[C@@H]1NC(=O)[C@@H]2CSSC[C@H](NC(=O)[C@H](Cc3c[nH]c4ccccc34)NC(=O)[C@H](CCCNC(N)=O)NC(=O)[C@@H](Cc3ccccc3)NC(=O)[C@H](Cc3c[nH]cn3)NC1=O)C(=O)N[C@@H](CCCNC(=N)N)C(=O)N[C@@H](Cc1c[nH]cn1)C(=O)N[C@H](Cc1ccccc1)C(=O)N[C@@H](CCCNC(N)=O)C(=O)N[C@@H](Cc1c[nH]c3ccccc13)C(=O)N2
notes: also called c[c[Cys-Arg-His-D-Phe-Cit-Trp-Cys]-Arg-His-D-Phe-Cit-Trp]
B14: Chem. 51 (peptide)
peptide: cyclo(CEH[dF]RWCEH[dF]RW)
modifications: disulfide 1-7
SMILES: N=C(N)NCCC[C@@H]1NC(=O)[C@@H](Cc2ccccc2)NC(=O)[C@H](Cc2c[nH]cn2)NC(=O)[C@H](CCC(=O)O)NC(=O)[C@@H]2CSSC[C@H](NC(=O)[C@H](Cc3c[nH]c4ccccc34)NC1=O)C(=O)N[C@@H](CCC(=O)O)C(=O)N[C@@H](Cc1c[nH]cn1)C(=O)N[C@H](Cc1ccccc1)C(=O)N[C@@H](CCCNC(=N)N)C(=O)N[C@@H](Cc1c[nH]c3ccccc13)C(=O)N2
notes: also called c[c[Cys-Glu-His-D-Phe-Arg-Trp-Cys]-Glu-His-D-Phe-Arg-Trp]

Target: T1, human melanocortin 4 receptor (human, UniProt P32245 1-332)
T1 sequence (P32245 whole entry): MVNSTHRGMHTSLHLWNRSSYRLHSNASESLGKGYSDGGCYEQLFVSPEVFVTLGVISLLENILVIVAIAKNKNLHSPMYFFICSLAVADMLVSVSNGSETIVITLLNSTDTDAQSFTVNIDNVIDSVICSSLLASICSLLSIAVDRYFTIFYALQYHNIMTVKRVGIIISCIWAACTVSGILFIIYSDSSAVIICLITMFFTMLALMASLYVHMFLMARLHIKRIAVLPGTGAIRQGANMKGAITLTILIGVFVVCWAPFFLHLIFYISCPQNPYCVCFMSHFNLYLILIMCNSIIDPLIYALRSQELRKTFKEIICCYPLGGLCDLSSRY
Assay: cell-based or functional assay

Binder | MC4R cAMP EC50
B1 | 210 pM
B2 | 230 pM
B3 | 170 pM
B4 | 170 pM
B5 | 190 pM
B6 | 440 pM
B7 | 160 pM
B8 | 80 pM
B9 | 100 pM
B10 | 14900 pM
B11 | 1170 pM
B12 | 11000 pM
B13 | 40 pM
B14 | 200 pM

Target: human melanocortin 1 receptor (human, UniProt Q01726 1-317)
Sequence (Q01726 whole entry): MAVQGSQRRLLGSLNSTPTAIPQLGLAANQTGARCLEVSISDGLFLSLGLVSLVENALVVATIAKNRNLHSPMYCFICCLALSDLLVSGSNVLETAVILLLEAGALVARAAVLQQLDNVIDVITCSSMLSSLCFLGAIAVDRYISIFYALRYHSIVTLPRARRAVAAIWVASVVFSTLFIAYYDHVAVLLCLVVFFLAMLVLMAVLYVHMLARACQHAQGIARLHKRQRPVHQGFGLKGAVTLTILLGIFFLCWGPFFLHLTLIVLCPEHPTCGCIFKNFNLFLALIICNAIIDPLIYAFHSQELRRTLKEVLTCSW
Assay: cell-based or functional assay

Binder | MC1R cAMP EC50
B1 | 6470 pM
B2 | 47700 pM
B3 | > 1000 pM
B4 | 53300 pM
B5 | 10400 pM
B6 | 68000 pM
B7 | 21800 pM
B8 | 33200 pM
B9 | 4140 pM
B10 | 198000 pM
B11 | 66200 pM
B12 | > 10000 pM
B13 | 290 pM
B14 | 2690 pM

Target: T1, human melanocortin 4 receptor
Assay: competition with 125-NDP-α-MSH, BHK human MC4R membranes
Description: In order to assess the binding affinity of the selected compounds for the human MC4R competitive binding assays was performed with radiolabeled NDP-alpha MSH (¹²⁵NDP-α-MSH).
The assay was performed in 96-well filterplates (Unifilter) using BHK cells stably expressing the human MC4 receptor.
The BHK cell membranes were prepared from frozen or fresh cells that were homogenized in 20 mM HEPES pH 7.1, 5 mM MgCl₂, 1 mg/ml bacitracin (buffer 1) and centrifuged at 15000 rpm at 4° C., 10 min in a Sorvall RC 5B plus, SS-34 rotor. The supernatant was discarded, and the pellets were re-suspended in buffer 1, homogenized and centrifuged two more times. The final pellets were re-suspended in buffer 1 and the protein concentration was measured and adjusted with buffer 1 to 5 mg/ml and the membrane preparation was kept at −80° C. until assay. The assay was run on a dilution of this cell membrane suspension without any further preparation. The suspension was diluted to give maximally 10% specific binding, i.e. to approx. 50-100 fold dilution, optimized after each membrane preparation. The assay was performed in a total volume of 200 μl: 50 μl of cell suspension, 50 μl of ¹²⁵NDP-α-MSH (apx. […] in final concentration), 50 μl of test compound and 50 μl binding buffer were mixed and incubated for 2 h at 25° C. (binding buffer: 25 mM HEPES, pH 7.0, 1 mM CaCl₂), 1 mM MgSO₄, 1 mM EGTA, 0.005% Tween™ 20 and 0.1% HSA or, alternatively, 0.1% ovalbumin (Sigma; catalogue No. A-5503)). Test compounds were dissolved in 100% DMSO and diluted in binding buffer in a dose range from 1 μM to 0.001 nM. Radiolabelled ligand and membranes were diluted in binding buffer. The incubation was stopped by dilution with 8×100 μl ice-cold 0.9% NaCl. The radioactivity retained on the filters was counted using a Packard Topcounter. The data were analysed by non-linear regression analysis of binding curves, using the Windows™ program GraphPad™ Prism (GraphPad Software, USA).

Binder | Ki
B1 | 990 pM
B2 | 760 pM
B3 | 130 pM
B4 | 100 pM
B5 | 210 pM
B6 | 110 pM
B7 | 90 pM
B8 | 50 pM
B9 | 330 pM
B10 | 47900 pM
B11 | 20000 pM
B12 | 9470 pM
B13 | 210 pM
B14 | 500 pM
